± gives the uncertainty stated by the source.

B1: Max-interacting protein 1, residues 70 to 120; numbered along this chain, P50539 (parent)
chain: STHNELEKNRRAHLRLCLERLKVLIPLGPDCTRHTTLGLLNKAKAHIKKLE

This series covers variants of B1. Put plainly: abundance fitness (aPCA) (normalised: wild type 0, dead -1); higher = more abundant; growth selection in yeast, the domain comes from the species named. To be noted: Homo sapiens.
In the case of STHNELEKNRRAHLRLCLERLKVLIPLGPDCTRHTTRGLLNKAKAHIKKLE, the abundance fitness came to 0.253 ± 0.089.
Take STHNELEKNRRAHLRLCLERLKVLIPLGPDCTRHTTAGLLNKAKAHIKKLE: the abundance fitness is -0.026 ± 0.093.
For STHNELEKNRRAHLRLCLERLKVLIPLGPDCTRHTTDGLLNKAKAHIKKLE the value was -0.375 ± 0.15.
Consider STHNELEKNRRAHLRLCLERLKVLIPLGPDCTRHTTSGLLNKAKAHIKKLE, for which the abundance fitness was found to be 0.06 ± 0.11.
STHNELEKNRRAHLRLCLERLKVLIPLGPDCTRHTTNGLLNKAKAHIKKLE: the abundance fitness was -0.292 ± 0.21.
Consider STHNELEKNRRAHLRLCLERLKVLIPLGPDCTRHTTKGLLNKAKAHIKKLE, for which the abundance fitness turned out to be 0.073 ± 0.11.
Consider STHNELEKNRRAHLRLCLERLKVLIPLGPDCTRHTTFGLLNKAKAHIKKLE, for which the abundance fitness turned out to be 0.105 ± 0.15.
For STHNELEKNRRAHLRLCLERLKVLIPLGPDCTRHTTPGLLNKAKAHIKKLE the value was -0.624 ± 0.15; for STHNELEKNRRAHLRLCLERLKVLIPLGPDCTRHTTVGLLNKAKAHIKKLE, -0.023 ± 0.089; for STHNELEKNRRAHLRLCLERLKVLIPLGPDCTRHTTQGLLNKAKAHIKKLE, -0.154 ± 0.12.
The same measure for STHNELEKNRRAHLRLCLERLKVLIPLGPDCTRHTTGGLLNKAKAHIKKLE: -0.107 ± 0.089.
For STHNELEKNRRAHLRLCLERLKVLIPLGPDCTRHTTHGLLNKAKAHIKKLE, the abundance fitness was -0.399 ± 0.25.
The same measure for STHNELEKNRRAHLRLCLERLKVLIPLGPDCTRHTTMGLLNKAKAHIKKLE: -0.124 ± 0.14; for STHNELEKNRRAHLRLCLERLKVLIPLGPDCTRHTTEGLLNKAKAHIKKLE: -0.344 ± 0.11; for STHNELEKNRRAHLRLCLERLKVLIPLGPDCTRHTTCGLLNKAKAHIKKLE: -0.244 ± 0.19.
For STHNELEKNRRAHLRLCLERLKVLIPLGPDCTRHTTYGLLNKAKAHIKKLE, the abundance fitness is -0.172 ± 0.13.
The same measure for STHNELEKNRRAHLRLCLERLKVLIPLGPDCTRHTTWGLLNKAKAHIKKLE: 0.125 ± 0.12; for STHNELEKNRRAHLRLCLERLKVLIPLGPDCTYHTTLGLLNKAKAHIKKLE: -0.107 ± 0.14; for STHNELEKNRRAHLRLCLERLKVLIPLGPDCTRHTHLGLLNKAKAHIKKLE: -0.176 ± 0.15.
On to STHNELEKNRRAHLRLCLERLKVLIPLGPDCTRHTGLGLLNKAKAHIKKLE, for which the abundance fitness stood at 0.134 ± 0.076.
For the variant STHNELEKNRRAHLRLCLERLKVLIPLGPDCTRHTCLGLLNKAKAHIKKLE, the abundance fitness came out at 0.085 ± 0.13.
Regarding STHNELEKNRRAHLRLCLERLKVLIPLGPDCTRHTILGLLNKAKAHIKKLE, the abundance fitness is -0.028 ± 0.12.
On to STHNELEKNRRAHLRLCLERLKVLIPLGPDCTRHTQLGLLNKAKAHIKKLE, for which the abundance fitness is -0.199 ± 0.13.
For the variant STHNELEKNRRAHLRLCLERLKVLIPLGPDCTRHTPLGLLNKAKAHIKKLE, the abundance fitness is -0.107 ± 0.12.
For STHNELEKNRRAHLRLCLERLKVLIPLGPDCTRHTVLGLLNKAKAHIKKLE the value was 0.308 ± 0.084.
For STHNELEKNRRAHLRLCLERLKVLIPLGPDCTRHTKLGLLNKAKAHIKKLE the value was -0.091 ± 0.15; for STHNELEKNRRAHLRLCLERLKVLIPLGPDCTRHTNLGLLNKAKAHIKKLE, -0.183 ± 0.16.
On to STHNELEKNRRAHLRLCLERLKVLIPLGPDCTRHTSLGLLNKAKAHIKKLE, for which the abundance fitness was -0.132 ± 0.094.
The same measure for STHNELEKNRRAHLRLCLERLKVLIPLGPDCTRHTFLGLLNKAKAHIKKLE: 0.155 ± 0.13.
In the case of STHNELEKNRRAHLRLCLERLKVLIPLGPDCTRHTELGLLNKAKAHIKKLE, the abundance fitness is -0.487 ± 0.13.
STHNELEKNRRAHLRLCLERLKVLIPLGPDCTRHTDLGLLNKAKAHIKKLE: the abundance fitness was -0.705 ± 0.13.
STHNELEKNRRAHLRLCLERLKVLIPLGPDCTRHTLLGLLNKAKAHIKKLE: the abundance fitness was -0.106 ± 0.1.
With STHNELEKNRRAHLRLCLERLKVLIPLGPDCTRHTALGLLNKAKAHIKKLE, the abundance fitness stood at 0.138 ± 0.097.
The same measure for STHNELEKNRRAHLRLCLERLKVLIPLGPDCTRHTRLGLLNKAKAHIKKLE: -0.19 ± 0.09; for STHNELEKNRRAHLRLCLERLKVLIPLGPDCTRHTTLGRLNKAKAHIKKLE: -0.879 ± 0.1.
The same measure for STHNELEKNRRAHLRLCLERLKVLIPLGPDCTRHTTLGYLNKAKAHIKKLE: -0.555 ± 0.16; for STHNELEKNRRAHLRLCLERLKVLIPLGPDCTRHTTLGCLNKAKAHIKKLE: -0.588 ± 0.13; for STHNELEKNRRAHLRLCLERLKVLIPLGPDCTRHTTLGALNKAKAHIKKLE: -0.704 ± 0.15.
As to STHNELEKNRRAHLRLCLERLKVLIPLGPDCTRHTTLGELNKAKAHIKKLE, the abundance fitness was -0.597 ± 0.13.
STHNELEKNRRAHLRLCLERLKVLIPLGPDCTRHTTLGQLNKAKAHIKKLE: the abundance fitness was -0.894 ± 0.18.
In the case of STHNELEKNRRAHLRLCLERLKVLIPLGPDCTRHTTLGNLNKAKAHIKKLE, the abundance fitness is -1 ± 0.17.
With STHNELEKNRRAHLRLCLERLKVLIPLGPDCTRHTTLGWLNKAKAHIKKLE, the abundance fitness turned out to be 0.127 ± 0.096.
In the case of STHNELEKNRRAHLRLCLERLKVLIPLGPDCTRHTTLGKLNKAKAHIKKLE, the abundance fitness is -0.881 ± 0.16.
The same measure for STHNELEKNRRAHLRLCLERLKVLIPLGPDCTRHTTLGPLNKAKAHIKKLE: -0.597 ± 0.15; for STHNELEKNRRAHLRLCLERLKVLIPLGPDCTRHTTLGSLNKAKAHIKKLE: -0.707 ± 0.11.
For STHNELEKNRRAHLRLCLERLKVLIPLGPDCTRHTTLGHLNKAKAHIKKLE the value was -1.15 ± 0.36; for STHNELEKNRRAHLRLCLERLKVLIPLGPDCTRHTTLGMLNKAKAHIKKLE, -0.194 ± 0.11; for STHNELEKNRRAHLRLCLERLKVLIPLGPDCTRHTTLGVLNKAKAHIKKLE, -0.257 ± 0.09.
On to STHNELEKNRRAHLRLCLERLKVLIPLGPDCTRHTTLGTLNKAKAHIKKLE, for which the abundance fitness was -0.535 ± 0.16.
For STHNELEKNRRAHLRLCLERLKVLIPLGPDCTRHTTLGILNKAKAHIKKLE the value was -0.07 ± 0.13; for STHNELEKNRRAHLRLCLERLKVLIPLGPDCTRHTTLGDLNKAKAHIKKLE, -1.11 ± 0.23.

Values taken from the Human Domainome abundance scans (Beltran et al. 2025).
